Experimental data reported in US9260517B2, “Human monoclonal antibodies to human nucleolin” (MUSC Foundation for Research Development, priority 2009, dated 2016).

How the values were obtained:
[1] = biological target: T1, cell surface nucleolin on MV4-11 AML cells (Homo sapiens, UniProt P19338); experiment: Flow cytometry (FACS) binding to MV4-11 cells; conditions: 5 μg/ml, 30 min on ice
T1 construct: endogenous in cells; host or cells: MV4-11 cells
Protocol: (§1) FIG. 12. Binding of HuMAbs to cell surface nucleolin and cytotoxicity to MV4-11 leukemia cells. (FIG. 12A) Anti-nucleolin HuMabs or Rituxan^R (5 μg/ml) were incubated with MV4-11 or normal tonsil cells for 30 min on ice, washed, then incubated with APC-labeled anti-human IgG (Miltenyi). Flow cytometry was performed on a FACSCaliber, and median fluorescence intensity (MFI) is shown.
analysis was performed using a Becton Dickinson FACSCalibur instrument at the MUSC Flow Cytometry Facility, according to established methods. Infection efficiency of B cells infected with […] was assessed by measuring fluorescence of Green Fluorescent Protein 24 h post-infection. Antibodies used to characterize human B cells were obtained from BD Biosciences and are specific for human CD20, CD19, CD23, CD27, CD30, CD38, IgD, IgM, and IgG.

normal tonsil cells = experiment: Flow cytometry binding to normal tonsil cells; set-up: species or system human; conditions: 5 μg/ml, 30 min on ice
Protocol: as §1

T1 sequence (P19338 whole entry): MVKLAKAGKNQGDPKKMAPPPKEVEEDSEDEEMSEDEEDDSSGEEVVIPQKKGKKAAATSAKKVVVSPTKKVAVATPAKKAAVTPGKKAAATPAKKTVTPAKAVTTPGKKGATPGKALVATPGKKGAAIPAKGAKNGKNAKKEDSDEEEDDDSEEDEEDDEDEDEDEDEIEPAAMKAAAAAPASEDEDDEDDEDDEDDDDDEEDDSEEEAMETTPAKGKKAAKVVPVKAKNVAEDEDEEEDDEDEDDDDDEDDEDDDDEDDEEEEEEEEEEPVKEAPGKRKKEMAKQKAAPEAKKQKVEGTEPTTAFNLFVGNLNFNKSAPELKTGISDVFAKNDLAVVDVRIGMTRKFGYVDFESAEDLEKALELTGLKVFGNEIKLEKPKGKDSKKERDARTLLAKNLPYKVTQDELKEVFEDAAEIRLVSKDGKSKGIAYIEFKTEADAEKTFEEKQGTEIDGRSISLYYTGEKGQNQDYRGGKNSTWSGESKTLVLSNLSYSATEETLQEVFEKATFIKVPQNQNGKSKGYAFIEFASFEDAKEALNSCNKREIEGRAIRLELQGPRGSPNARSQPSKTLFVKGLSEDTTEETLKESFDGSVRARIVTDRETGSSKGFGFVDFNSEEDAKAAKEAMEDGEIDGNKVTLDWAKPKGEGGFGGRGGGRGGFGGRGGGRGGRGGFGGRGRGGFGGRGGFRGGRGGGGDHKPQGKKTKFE

rituximab
binding to MV4-11 cells by flow cytometry [1]: not to MV4-11 cells | binding to normal tonsil cells by flow cytometry (normal tonsil cells): bound to normal tonsil cells
